Article PMC3936753

Tests used:
MBP-VP5 [1] = target: T1, MBP-VP5 (Helicoverpa armigera cypovirus 5 …, UniProt Q3LTV8 1-380); assay: EMSA; 10 pmol protein, 0.1 pmol probe; 25 mM HEPES-KOH pH 7.5, 100 mM NaCl, 10 ul, 30 min at room temperature; 2% agarose gel
MBP-VP5 [2] = target: T1, MBP-VP5; assay: EMSA; 10 pmol protein, 0.1 pmol probe; Hill coefficient ~1.499 (0.05-0.16 uM) and ~4.972 (0.2-0.48 uM); 25 mM HEPES-KOH pH 7.5, 100 mM NaCl, 10 ul, 30 min at room temperature; 2% agarose gel
MBP-VP5 [3] = target: T1, MBP-VP5; assay: competition; vs HEX-RNA1, 5-100 fold excess, 2 pmol protein; 25 mM HEPES-KOH pH 7.5, 100 mM NaCl, 10 ul, 30 min at room temperature; 2% agarose gel

B1: RNA1/RNA2 (dsRNA)
RNA 1: GUGUAGUAAUCGUCCAUUGUGUCU
RNA 2: AGACACAAUGGACGAUUACUACAC
Does B1 bind (MBP-VP5 [1])?
Result: binds

Does GUGUAGUAAUCGUCCAUUGUGUCU (ssRNA) [RNA1] bind (MBP-VP5 [2])?
Result: binds

Does GTGTAGTAATCGTCCATTGTGTCT (ssDNA) [DNA1] bind (MBP-VP5 [1])?
Result: binds

Does GUGUAGUAAUCGUCCAUUGUGUCU (ssRNA) [RNA10] bind (MBP-VP5 [3])?
Result: binds
